Test results as given in patent US10005829B2, “Synthetic linear apelin mimetics for the treatment of heart failure” (priority 2012, dated 2018).
Where a SMILES comes first, the peptide text is derived from it. [ ]: non-standard residue; d: D form. The star is where a group is joined. Pro(trans-4-Ph) = O=C(O)[C@@H]1C[C@@H](c2ccccc2)CN1; Cha = N[C@@H](CC1CCCCC1)C(=O)O; pGlu = O=C1CC[C@@H](C(=O)O)N1; dNle = CCCC[C@@H](N)C(=O)O; dNva = CCC[C@@H](N)C(=O)O; Bn = c1ccc(C*)cc1

T1: APJ receptor (human, UniProt P35414 1-380)
T1 sequence (looked up): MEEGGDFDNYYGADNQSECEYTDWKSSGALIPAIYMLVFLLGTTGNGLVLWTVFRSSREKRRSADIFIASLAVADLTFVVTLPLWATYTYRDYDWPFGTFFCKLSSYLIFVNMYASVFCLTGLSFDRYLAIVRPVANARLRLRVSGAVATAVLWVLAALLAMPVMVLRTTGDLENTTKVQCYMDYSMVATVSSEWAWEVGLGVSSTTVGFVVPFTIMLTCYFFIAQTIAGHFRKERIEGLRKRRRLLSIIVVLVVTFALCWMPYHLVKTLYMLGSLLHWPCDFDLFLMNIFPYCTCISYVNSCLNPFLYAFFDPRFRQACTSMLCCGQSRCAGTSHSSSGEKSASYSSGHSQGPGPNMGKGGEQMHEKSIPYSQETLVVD

B1: pE-R-P-R-L-v-H-K-G-P-nle-a-f-OH (peptide)
peptide: [pGlu]RPRL[dV]HKGP[dNle][dA][dF]-OH
SMILES: CCCC[C@@H](NC(=O)[C@@H]1CCCN1C(=O)CNC(=O)[C@H](CCCCN)NC(=O)[C@H](Cc1c[nH]cn1)NC(=O)[C@H](NC(=O)[C@H](CC(C)C)NC(=O)[C@H](CCCNC(=N)N)NC(=O)[C@@H]1CCCN1C(=O)[C@H](CCCNC(=N)N)NC(=O)[C@@H]1CCC(=O)N1)C(C)C)C(=O)N[C@H](C)C(=O)N[C@H](Cc1ccccc1)C(=O)O
B2: pE-R-P-R-L-a-H-K-G-P-nle-nva-f-OH (peptide)
peptide: [pGlu]RPRL[dA]HKGP[dNle][dNva][dF]-OH
SMILES: CCCC[C@@H](NC(=O)[C@@H]1CCCN1C(=O)CNC(=O)[C@H](CCCCN)NC(=O)[C@H](Cc1c[nH]cn1)NC(=O)[C@@H](C)NC(=O)[C@H](CC(C)C)NC(=O)[C@H](CCCNC(=N)N)NC(=O)[C@@H]1CCCN1C(=O)[C@H](CCCNC(=N)N)NC(=O)[C@@H]1CCC(=O)N1)C(=O)N[C@H](CCC)C(=O)N[C@H](Cc1ccccc1)C(=O)O
B3: pE-R-P-R-Cha-nva-H-K-G-P-nle-a-f-OH (peptide)
peptide: [pGlu]RPR[Cha][dNva]HKGP[dNle][dA][dF]-OH
SMILES: CCCC[C@@H](NC(=O)[C@@H]1CCCN1C(=O)CNC(=O)[C@H](CCCCN)NC(=O)[C@H](Cc1c[nH]cn1)NC(=O)[C@@H](CCC)NC(=O)[C@H](CC1CCCCC1)NC(=O)[C@H](CCCNC(=N)N)NC(=O)[C@@H]1CCCN1C(=O)[C@H](CCCNC(=N)N)NC(=O)[C@@H]1CCC(=O)N1)C(=O)N[C@H](C)C(=O)N[C@H](Cc1ccccc1)C(=O)O
B4: pE-R-P-R-L-a-H-K-D-P-nle-a-f-OH (peptide)
peptide: [pGlu]RPRL[dA]HKDP[dNle][dA][dF]-OH
SMILES: CCCC[C@@H](NC(=O)[C@@H]1CCCN1C(=O)[C@H](CC(=O)O)NC(=O)[C@H](CCCCN)NC(=O)[C@H](Cc1c[nH]cn1)NC(=O)[C@@H](C)NC(=O)[C@H](CC(C)C)NC(=O)[C@H](CCCNC(=N)N)NC(=O)[C@@H]1CCCN1C(=O)[C@H](CCCNC(=N)N)NC(=O)[C@@H]1CCC(=O)N1)C(=O)N[C@H](C)C(=O)N[C@H](Cc1ccccc1)C(=O)O
B5: pE-R-P-R-L-d-H-K-G-P-nle-a-f-OH (peptide)
peptide: [pGlu]RPRL[dD]HKGP[dNle][dA][dF]-OH
SMILES: CCCC[C@@H](NC(=O)[C@@H]1CCCN1C(=O)CNC(=O)[C@H](CCCCN)NC(=O)[C@H](Cc1c[nH]cn1)NC(=O)[C@@H](CC(=O)O)NC(=O)[C@H](CC(C)C)NC(=O)[C@H](CCCNC(=N)N)NC(=O)[C@@H]1CCCN1C(=O)[C@H](CCCNC(=N)N)NC(=O)[C@@H]1CCC(=O)N1)C(=O)N[C@H](C)C(=O)N[C@H](Cc1ccccc1)C(=O)O
B6: pE-R-P-R-L-S-f-K-G-P-nle-a-f-OH (peptide)
peptide: [pGlu]RPRLS[dF]KGP[dNle][dA][dF]-OH
SMILES: CCCC[C@@H](NC(=O)[C@@H]1CCCN1C(=O)CNC(=O)[C@H](CCCCN)NC(=O)[C@@H](Cc1ccccc1)NC(=O)[C@H](CO)NC(=O)[C@H](CC(C)C)NC(=O)[C@H](CCCNC(=N)N)NC(=O)[C@@H]1CCCN1C(=O)[C@H](CCCNC(=N)N)NC(=O)[C@@H]1CCC(=O)N1)C(=O)N[C@H](C)C(=O)N[C@H](Cc1ccccc1)C(=O)O
B7: pE-R-P-R-L-a-H-E-G-P-nle-a-f-OH (peptide)
peptide: [pGlu]RPRL[dA]HEGP[dNle][dA][dF]-OH
SMILES: CCCC[C@@H](NC(=O)[C@@H]1CCCN1C(=O)CNC(=O)[C@H](CCC(=O)O)NC(=O)[C@H](Cc1c[nH]cn1)NC(=O)[C@@H](C)NC(=O)[C@H](CC(C)C)NC(=O)[C@H](CCCNC(=N)N)NC(=O)[C@@H]1CCCN1C(=O)[C@H](CCCNC(=N)N)NC(=O)[C@@H]1CCC(=O)N1)C(=O)N[C@H](C)C(=O)N[C@H](Cc1ccccc1)C(=O)O
B8: pE-R-P-R-L-S-h-K-G-P-nle-a-f-OH (peptide)
peptide: [pGlu]RPRLS[dH]KGP[dNle][dA][dF]-OH
SMILES: CCCC[C@@H](NC(=O)[C@@H]1CCCN1C(=O)CNC(=O)[C@H](CCCCN)NC(=O)[C@@H](Cc1c[nH]cn1)NC(=O)[C@H](CO)NC(=O)[C@H](CC(C)C)NC(=O)[C@H](CCCNC(=N)N)NC(=O)[C@@H]1CCCN1C(=O)[C@H](CCCNC(=N)N)NC(=O)[C@@H]1CCC(=O)N1)C(=O)N[C@H](C)C(=O)N[C@H](Cc1ccccc1)C(=O)O
B9: pE-R-P-R-L-a-H-Q-G-P-nle-a-f-OH (peptide)
peptide: [pGlu]RPRL[dA]HQGP[dNle][dA][dF]-OH
SMILES: CCCC[C@@H](NC(=O)[C@@H]1CCCN1C(=O)CNC(=O)[C@H](CCC(N)=O)NC(=O)[C@H](Cc1c[nH]cn1)NC(=O)[C@@H](C)NC(=O)[C@H](CC(C)C)NC(=O)[C@H](CCCNC(=N)N)NC(=O)[C@@H]1CCCN1C(=O)[C@H](CCCNC(=N)N)NC(=O)[C@@H]1CCC(=O)N1)C(=O)N[C@H](C)C(=O)N[C@H](Cc1ccccc1)C(=O)O
B10: pE-R-P-R-L-a-H-K-G-P-f-a-f-OH (peptide)
peptide: [pGlu]RPRL[dA]HKGP[dF][dA][dF]-OH
SMILES: CC(C)C[C@H](NC(=O)[C@H](CCCNC(=N)N)NC(=O)[C@@H]1CCCN1C(=O)[C@H](CCCNC(=N)N)NC(=O)[C@@H]1CCC(=O)N1)C(=O)N[C@H](C)C(=O)N[C@@H](Cc1c[nH]cn1)C(=O)N[C@@H](CCCCN)C(=O)NCC(=O)N1CCC[C@H]1C(=O)N[C@H](Cc1ccccc1)C(=O)N[C@H](C)C(=O)N[C@H](Cc1ccccc1)C(=O)O

Biological target: T1, APJ receptor
Test: cell-based or functional assay
Conditions: not given

Compared with B1, B2 is 8.8-fold lower in “hAPJ Ca^2+ Flux EC50” value: 7.9 nM for the first, 0.9 nM for the second.

Compared with ERPRLAHKGPLF (pE at 1; D-Ala at 6; D-Nle at 11; D-Phe at 12) [pE-R-P-R-L-a-H-K-G-P-nle-f-OH], B3 is 3-fold higher in “hAPJ Ca^2+ Flux EC50” value: 3.1 nM for the first, 9.4 nM for the second.

Compared with B4, [pGlu]RPRLA[dH]KGP[dNle][dA][dF]-OH [pE-R-P-R-L-A-h-K-G-P-nle-a-f-OH] is 1.7-fold lower in “hAPJ Ca^2+ Flux EC50” value: 95.9 nM for the first, 55.1 nM for the second.

[pGlu]R[Pro(trans-4-Ph)]RL[dA]HKGP[dNle][dA][dF]-OH [pE-R-(trans-4-PhP)-R-L-a-H-K-G-P-nle-a-f-OH] and B5 are within 1.5-fold of each other in “hAPJ Ca^2+ Flux EC50” value: 9.9 nM for the first, 7.7 nM for the second.

First: B6
Second: B7
The “hAPJ Ca^2+ Flux EC50” value of the first is 2.7-fold lower: 72.8 nM for the first, 200 nM for the second.

B8 and B9 are within 1.5-fold of each other in “hAPJ Ca^2+ Flux EC50” value: 6.8 nM for the first, 7.4 nM for the second.

Compared with B10, [pGlu]RPRL[dCys(tBu)]HKGP[dNle][dA][dF]-OH [pE-R-P-R-L-c(tBu)-H-K-G-P-nle-a-f-OH] is 460-fold higher in “hAPJ Ca^2+ Flux EC50” value: 1.5 nM for the first, 693 nM for the second.

Test system: not listed separately
Test: Surrogate activity-based plasma stability assay
Type: in vitro ADME
Conditions: 5% rat plasma, 37° C., EC50 at t0 and t24 hrs; Table 2
Description: • Stability assay: stability half-life, (t ½), values were determined by converting peak areas at each time point to percent remaining relative to initial (t=0) peak area. Percent remaining=100×(sample peak area)÷(t=0 peak area) • The natural log of percent remaining values were calculated and plotted against sample time (Microsoft Excel). The slope of this line, k, was determined by linear regression (Microsoft Excel). • Stability half-life was then calculated by the formula, t ½=0.693÷k Surrogate Activity-based Plasma Stability Assay:
The calcium flux protocol described above was followed, with the following changes. The peptides were also incubated with 5% rat plasma (Bioreclamation # [sequence]-M, Na Heparin-treated). Readings were taken at time points t0 and t24 hrs, after incubation in a 37° C. tissue culture incubator. Peptide plasma half-life in minutes was estimated by calculating the following:

In the case of CCCC[C@@H](NC(=O)[C@@H]1CCCN1C(=O)CNC(=O)[C@H](CCCCN)NC(=O)[C@H](Cc1c[nH]cn1)NC(=O)[C@@H](C)NC(=O)[C@H](Cc1ccc(OCc2ccccc2)cc1)NC(=O)[C@H](CCCNC(=N)N)NC(=O)[C@@H]1CCCN1C(=O)[C@H](CCCNC(=N)N)NC(=O)[C@@H]1CCC(=O)N1)C(=O)N[C@H](C)C(=O)N[C@H](Cc1ccccc1)C(=O)O [Example 27, pE-R-P-R-Y(Bzl)-a-H-K-G-P-nle-a-f-OH] ([pGlu]RPRY(Bn)[dA]HKGP[dNle][dA][dF]-OH), the “Surrogate activity-based Plasma stability t½” value is reported as 5.815 h.
